The record followed here is publication PMC3024764 (The Journal of Biological Chemistry, 2010).

This test deals with Pim-1 kinase (SPR analysis) (UniProt P11309 1-313). In words: SPR.
Chain of Pim-1 kinase (SPR analysis) (P11309 whole entry): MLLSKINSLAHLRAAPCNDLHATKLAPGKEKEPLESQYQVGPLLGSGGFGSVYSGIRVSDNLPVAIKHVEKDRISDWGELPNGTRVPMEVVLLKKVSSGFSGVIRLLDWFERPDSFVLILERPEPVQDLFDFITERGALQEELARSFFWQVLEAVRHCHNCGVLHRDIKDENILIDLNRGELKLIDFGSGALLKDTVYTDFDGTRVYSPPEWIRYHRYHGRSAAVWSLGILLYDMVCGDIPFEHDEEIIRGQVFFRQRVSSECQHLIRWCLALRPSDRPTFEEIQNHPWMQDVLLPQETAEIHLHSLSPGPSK

B1: R8-T198mu peptide (peptide)
peptide: RRRRRRRRKKPGLDRDQT
With B1, the Kd is 4.25 µM.
